The record followed here is the nanobody polyreactivity screen of Harvey et al. (2022).

This data set can be described thus: yeast display, Sf9 membrane polyspecificity reagent, FACS + sequencing; frameworks hold sequencing errors. Put shortly:
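Galactose-induced (36–48 hours) yeast carrying a synthetic nanobody display library were exposed to 10% biotinylated, detergent-solubilized Sf9 membrane reagent at 4 °C for 1 hour. FACS followed streptavidin microbead enrichment, using low and high (top ~1%) gates for expression (anti-HA) and reagent binding (streptavidin). Colony PCR, MiSeq 2 × 250 sequencing and CDR-length filtering followed. Labels for polyreactivity reflect the gate of origin.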
For the sequence “QVQLVESGGGLVQAGGSLRLSCAASGITFPRYVMGWYRQAPGKERELVAAISTSGGSTYYADSVKGRFTISRDNAKNTVYLQMNSLKPEDTAVYYCAALDIYSSTYPVEYDYWGQGTQVTVSS”, the “polyreactivity (PSR sort gate)” value was “high polyreactivity”.

As to “QVQLVESGGGLVQAGGSLRLSCAASGSTSVQYAMGWYRQAPGKERELVAAIDRSGGSTSYADSVKGRFTISRDNAKNTVYLQMNSLKPEDTAVYYCNADPVRSTYSYDYWGQGTQVTVSS”, the “polyreactivity (PSR sort gate)” value was “low polyreactivity”.

As for “QVQLEESGGGLVQAGGRLRLSCAASGGTFRNNAMGWDRQAPGKEREVVAAISSSGTSTYYADSVKGRFTISRDNAKNTVYLQMNSLKPEDTAVYYCNADALGYPWWDHMDYWGQGTQVTVSS”, the “polyreactivity (PSR sort gate)” value was “low polyreactivity”.

For the sequence “QVQLVESGGGLVQAGGSLRLSCAASGSILYIYAMGWYRQAPGKERELVASINSGGSTYYADSVKGRFTISRDNAKNTVYLHMYSLKPEDTGVYYCAKQGVDYWGQGTQVTVSS”, the “polyreactivity (PSR sort gate)” value is listed as “low polyreactivity”.

“QVQLVESGGGLVQAGGSLRLRGAASGSTFGPNAMGWYRPAPGKEREFVASISWRGGRTYYADSVKGRFTISRDNAKNTVYLQMNSLNPEDTAVYYCAAVSYPAVYGFDYWGQGTQVTVSS”: the “polyreactivity (PSR sort gate)” value is reported as “high polyreactivity”.

On to “QVQLVESGGGLVQAGGSLRLSCAASGSISSYYAMGWYRQAPGQERELVAAITLNGGNTYYADSVKGRFTISRDNAKKTVYLQMNSLKPEDTAVYYCARRYRYGTKYYYWGQGTQVTVSS”, for which the “polyreactivity (PSR sort gate)” value is given as “high polyreactivity”.

As for “QVQLVESGGGLVQAGGSLRLSCAASGSTFPRNAMGWYRQAPGKERELVATITSSAGGTYYADSVKGRFTISRDNAKNTVYLQMNSLKPEDTAVYYCNADKNGFWYTYFGRERDYWGQGTQVTVSS”, the “polyreactivity (PSR sort gate)” value is “low polyreactivity”.

For “QVQLVESGGGLVQAGGSLRLSCAASGSIFADYVMGWYRQAPGKERELVAAITRRGRTYYSDSVKGRFTISRDNAMNTVYIQMNILKPEDSAVYYCDKVASGKIDSWGQGTQVTVSS”, the “polyreactivity (PSR sort gate)” value is given as “low polyreactivity”.

Turning to “QVQLVESGGGLVQAGGSLRLSCAASGGTFKTNAMGWYRQAPGKERELVAAITGSGTSTYYADSVKGRFTISRDNAKYTVYLQMNSLKPEDTAVYYCAADKLYQPGIGDDYWGQGTQVTVSS”, the “polyreactivity (PSR sort gate)” value is “low polyreactivity”.

As for “QVQLQGSGGGLVQAGGSLRMSCAASAYIFQNVPKGLNRKEPGKERELVAGIDNGTSTNYADSVNGRFTISRDNAKNSVYLEMKSLKPVDTAVYYCAAAGQADDTLGYWGQGTQVTVSS”, the “polyreactivity (PSR sort gate)” value was “low polyreactivity”.

“QVQLVESGGGLVQAGGSLRLSCAASGLIFYPYAMGWYRQAPGKERELVAGISSSGDSTYYADSVKGRFTISRDNAKNTVYLQMNSLKPEDNAVYYCNTGWDPYGYDYWGQGTQVTVSS”: the “polyreactivity (PSR sort gate)” value is “low polyreactivity”.

As to “QVQLVDSGGGLVQAGGSLSLSCAASGSTFVVNAMGWYRQAPGKERELVAAITQSGGSTFYADSVKGRFTISRDNAKNTVYLQMNSLKPEDTAVYYWGQGTQVTVSS”, the “polyreactivity (PSR sort gate)” value is on record as “low polyreactivity”.

For “QFQLVESGGVLVQAGGILRLSCAASGSIFIDNAMGWYRQEPGKERDLVAAITVRGASTNYADSVKGRFTISRDNAKNTVYLQMNSLKPEDTAVYYCNAVGLRSPWHQDYLIRYDYWGQGTQVTVSS”, the “polyreactivity (PSR sort gate)” value is given as “low polyreactivity”.

Consider “QVQLVESGGGLVQAGGSLRLSCAASGRTFSWYAMGWYRQAPGKERELVAAITRDGGNTYYADSVKGRFTISRDHAKNTVYLQMNSLKPEDTAVYYCAKRGYVNYYCGQGTQVTVSS”, for which the “polyreactivity (PSR sort gate)” value was “high polyreactivity”.

On to “QVQLVESGGGLVQAGGSLRLSCAASGSTFRNYAMGWYRQAPGKERELVAAITKRGGTTYYADSVKGRFTISRDNAKNTVYLQMNSLKPEDTAVYYCAARVKGQWNTYDYWGQVTQVTVSS”, for which the “polyreactivity (PSR sort gate)” value was “high polyreactivity”.

Regarding “QVQLVESGRALVQAGGSLRLSCAASGNTFEDYAMGWYRQAPGKERELVAAINSGGSTNYADSVKGRFTISRDNAKNTVYLQLNSLKPEDTAVYYCAAEPGEGFDYWGQGTQVTVSS”, the “polyreactivity (PSR sort gate)” value is on record as “low polyreactivity”.

On to “QVQLVESGGGLVQAGVSLRLSCAASGSIFYEYAMGWYRQAPGKEREFVAAISSSGGSTYYADSEKGRFTISRDNAKNSVYLQMNSLKPEDTAAYYCNAQVGGVSFEYDYWGQGTQVTVSS”, for which the “polyreactivity (PSR sort gate)” value is “low polyreactivity”.
